The results in this text go back to the Human Domainome abundance scans (Beltran et al. 2025).

± gives the uncertainty stated by the source.

A short description of this series: abundance fitness (aPCA) (normalised: wild type 0, dead -1); higher = more abundant; growth selection in yeast, the domain comes from the species named. Conditions: Homo sapiens.
Turning to Gamma-crystallin D G100C, P07320, the abundance fitness is -0.117 ± 0.096. The substance Gamma-crystallin D G100D, P07320 yielded an abundance fitness of 0.069 ± 0.11. Gamma-crystallin D G100E, P07320: the abundance fitness was -0.069 ± 0.085. For Gamma-crystallin D G100F, P07320 the value was -0.779 ± 0.17; for Gamma-crystallin D G100H, P07320, -0.561 ± 0.28. For Gamma-crystallin D G100I, P07320 the value was -0.826 ± 0.36; for Gamma-crystallin D G100K, P07320, -0.325 ± 0.17; for Gamma-crystallin D G100L, P07320, -0.266 ± 0.075.

In the case of Gamma-crystallin D G100M, P07320, the abundance fitness is -0.356 ± 0.14. Gamma-crystallin D G100Q, P07320 displayed an abundance fitness of -0.565 ± 0.17. As to Gamma-crystallin D G100R, P07320, the abundance fitness is -0.437 ± 0.073. Take Gamma-crystallin D G100T, P07320: the abundance fitness was -0.889 ± 0.45. For Gamma-crystallin D G100V, P07320 the value was -1.13 ± 0.16; for Gamma-crystallin D G100Y, P07320, -0.839 ± 0.32.

Regarding Gamma-crystallin D I103E, P07320, the abundance fitness is 0.037 ± 0.13.

In the case of Gamma-crystallin D I103H, P07320, the abundance fitness was -0.186 ± 0.088. The substance Gamma-crystallin D I103Q, P07320 displayed an abundance fitness of -0.03 ± 0.13. For Gamma-crystallin D I103R, P07320 the value was 0.055 ± 0.064; for Gamma-crystallin D L112E, P07320, -0.383 ± 0.045.
